Data reported in article PMC9482650, “Quantitative fragmentomics allow affinity mapping of interactomes” (Nature Communications, 2022).
One block for each binder: values may come before it.

How the values were obtained:
Test in all cases: holdup assay
Design in all cases: key: below the threshold = too weak to quantify, mostly under pKd 3.1 to 4
GRIP1_3, Q9Y3R0 = target: T1, GRIP1_3, Q9Y3R0
T1 sequence (Q9Y3R0 247-346, limits assumed, looked up): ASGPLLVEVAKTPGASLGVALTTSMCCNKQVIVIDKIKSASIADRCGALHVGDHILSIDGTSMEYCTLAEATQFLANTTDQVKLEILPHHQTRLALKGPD

MPP2, Q14168 = target: T2, MPP2, Q14168
T2 sequence (Q14168 180-250, limits assumed, looked up): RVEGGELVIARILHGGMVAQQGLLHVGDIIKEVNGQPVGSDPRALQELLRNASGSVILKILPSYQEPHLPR

IL16_4, Q14005 = target: IL16_4, Q14005
IL16_4, Q14005, sequence (Q14005 1229-1329): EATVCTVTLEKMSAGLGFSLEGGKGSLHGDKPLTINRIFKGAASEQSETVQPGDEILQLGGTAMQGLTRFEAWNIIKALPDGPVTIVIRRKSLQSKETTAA

DLG4_1, P78352 = target: DLG4_1, P78352
DLG4_1, P78352, sequence (P78352 62-152): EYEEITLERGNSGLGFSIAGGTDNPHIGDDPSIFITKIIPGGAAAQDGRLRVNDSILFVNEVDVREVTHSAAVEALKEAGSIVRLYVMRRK

GIPC2, Q8TF65 = target: GIPC2, Q8TF65
GIPC2, Q8TF65, sequence (Q8TF65 112-203): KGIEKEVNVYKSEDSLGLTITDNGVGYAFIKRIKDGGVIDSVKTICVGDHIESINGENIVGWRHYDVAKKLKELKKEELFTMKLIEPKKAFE

GRIP1_2, Q9Y3R0 = target: T3, GRIP1_2, Q9Y3R0
T3 sequence (Q9Y3R0 145-248, limits assumed, looked up): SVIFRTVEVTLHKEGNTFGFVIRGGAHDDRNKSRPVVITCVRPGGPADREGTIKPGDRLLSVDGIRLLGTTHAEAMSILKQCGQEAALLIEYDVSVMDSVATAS

APBA2_1, Q99767 = target: T4, APBA2_1, Q99767
T4 sequence (Q99767 563-664, limits assumed, looked up): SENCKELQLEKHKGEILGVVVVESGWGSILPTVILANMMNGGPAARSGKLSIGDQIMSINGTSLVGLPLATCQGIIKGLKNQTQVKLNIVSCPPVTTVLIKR

LNX2_3, Q8N448 = target: T5, LNX2_3, Q8N448
T5 sequence (Q8N448 463-564, limits assumed, looked up): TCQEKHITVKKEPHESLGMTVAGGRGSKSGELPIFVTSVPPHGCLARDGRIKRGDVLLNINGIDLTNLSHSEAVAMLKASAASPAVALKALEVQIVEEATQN

GRID2IP_1, A4D2P6 = target: GRID2IP_1, A4D2P6
GRID2IP_1, A4D2P6, sequence (A4D2P6 1-87): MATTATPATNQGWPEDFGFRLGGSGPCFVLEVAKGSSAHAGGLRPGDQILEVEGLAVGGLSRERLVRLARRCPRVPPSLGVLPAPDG

MPP6, Q9NZW5 = target: T6, MPP6, Q9NZW5
T6 sequence (Q9NZW5 125-219, limits assumed, looked up): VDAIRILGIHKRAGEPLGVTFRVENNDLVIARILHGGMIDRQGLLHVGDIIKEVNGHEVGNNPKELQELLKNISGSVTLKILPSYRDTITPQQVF

SNTB1, Q13884 = target: T7, SNTB1, Q13884
T7 sequence (Q13884 107-205, limits assumed, looked up): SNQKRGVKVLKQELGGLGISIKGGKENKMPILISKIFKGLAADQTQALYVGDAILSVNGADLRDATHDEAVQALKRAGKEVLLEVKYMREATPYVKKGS

DFNB31_1, Q9P202 = target: T8, DFNB31_1, Q9P202
T8 sequence (Q9P202 135-233, limits assumed, looked up): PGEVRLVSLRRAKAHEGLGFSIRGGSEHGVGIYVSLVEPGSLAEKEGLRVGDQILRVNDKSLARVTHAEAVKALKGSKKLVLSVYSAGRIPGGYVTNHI

DLG1_3, Q12959 = target: DLG1_3, Q12959
DLG1_3, Q12959, sequence (Q12959 457-571): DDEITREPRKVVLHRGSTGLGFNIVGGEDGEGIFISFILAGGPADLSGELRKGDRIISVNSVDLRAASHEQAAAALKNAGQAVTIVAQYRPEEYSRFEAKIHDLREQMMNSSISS

GRIP1_7, Q9Y3R0 = target: T9, GRIP1_7, Q9Y3R0
T9 sequence (Q9Y3R0 999-1096, limits assumed, looked up): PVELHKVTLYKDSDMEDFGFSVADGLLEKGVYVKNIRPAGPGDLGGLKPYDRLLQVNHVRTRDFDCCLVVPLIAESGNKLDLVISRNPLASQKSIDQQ

DLG3_3, Q92796 = target: T10, DLG3_3, Q92796
T10 sequence (Q92796 374-475, limits assumed, looked up): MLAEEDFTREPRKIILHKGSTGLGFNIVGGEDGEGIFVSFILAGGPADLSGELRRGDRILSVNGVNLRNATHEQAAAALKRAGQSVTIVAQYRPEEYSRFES

NOS1, P29475 = target: NOS1, P29475
NOS1, P29475, sequence (P29475 9-101): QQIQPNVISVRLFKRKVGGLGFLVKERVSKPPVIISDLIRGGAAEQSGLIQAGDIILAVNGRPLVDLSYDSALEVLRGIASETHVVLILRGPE

GORASP2, Q9H8Y8 = target: GORASP2, Q9H8Y8
APBA2_2, Q99767 = target: T11, APBA2_2, Q99767
T11 sequence (Q99767 654-744, limits assumed, looked up): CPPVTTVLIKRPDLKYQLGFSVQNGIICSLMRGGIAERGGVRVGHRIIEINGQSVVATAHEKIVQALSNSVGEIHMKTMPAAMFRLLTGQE

CASK, O14936 = target: CASK, O14936
CASK, O14936, sequence (O14936 487-570): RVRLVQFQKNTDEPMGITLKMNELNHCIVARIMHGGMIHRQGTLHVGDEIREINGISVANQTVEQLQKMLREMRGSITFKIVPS

NHERF3_4, Q5T2W1 = target: T12, NHERF3_4, Q5T2W1
T12 sequence (Q5T2W1 373-468, limits assumed, looked up): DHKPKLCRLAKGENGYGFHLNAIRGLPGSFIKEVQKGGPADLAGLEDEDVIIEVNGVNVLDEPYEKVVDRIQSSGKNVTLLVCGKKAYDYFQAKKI

MAST2, Q6P0Q8 = target: MAST2, Q6P0Q8
MAST2, Q6P0Q8, sequence (Q6P0Q8 1099-1202): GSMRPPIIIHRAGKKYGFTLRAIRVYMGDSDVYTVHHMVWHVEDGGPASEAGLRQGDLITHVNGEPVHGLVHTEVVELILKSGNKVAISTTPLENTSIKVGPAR

LNX1_3, Q8TBB1 = target: LNX1_3, Q8TBB1
LNX1_3, Q8TBB1, sequence (Q8TBB1 500-596): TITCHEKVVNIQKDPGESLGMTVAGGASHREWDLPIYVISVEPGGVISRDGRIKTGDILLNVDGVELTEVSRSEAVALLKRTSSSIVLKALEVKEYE

ARHGEF11, O15085 = target: T13, ARHGEF11, O15085
T13 sequence (O15085 42-136, limits assumed, looked up): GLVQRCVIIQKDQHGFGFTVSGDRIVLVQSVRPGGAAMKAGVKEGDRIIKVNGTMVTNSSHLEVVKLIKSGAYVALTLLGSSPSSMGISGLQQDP

TJP1_3, Q07157 = target: TJP1_3, Q07157
TJP1_3, Q07157, sequence (Q07157 416-512): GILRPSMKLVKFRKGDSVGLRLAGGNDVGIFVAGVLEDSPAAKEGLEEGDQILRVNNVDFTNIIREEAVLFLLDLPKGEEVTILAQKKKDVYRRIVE

[1] = plain residues with an end cap or a label only (N-terminal biotin on a linker: ahx)
[2] = plain residues with an end cap or a label only (N-terminal biotin on a linker: ado-ado)

pKd (GRIP1_3, Q9Y3R0; [1]): below the threshold
pKd (MPP2, Q14168; [1]): below the threshold
pKd (IL16_4, Q14005; [1]): below the threshold
pKd (DLG4_1, P78352; [1]): below the threshold
pKd (GIPC2, Q8TF65; [1]): below the threshold
pKd (GRIP1_2, Q9Y3R0; [1]): below the threshold
pKd (APBA2_1, Q99767; [1]): below the threshold
pKd (LNX2_3, Q8N448; [1]): below the threshold
pKd (GRID2IP_1, A4D2P6; [1]): below the threshold
pKd (MPP6, Q9NZW5; [1]): below the threshold
pKd (SNTB1, Q13884; [1]): below the threshold
pKd (DFNB31_1, Q9P202; [1]): 3.47
pKd (DLG1_3, Q12959; [1]): below the threshold
pKd (GRIP1_7, Q9Y3R0; [1]): below the threshold
pKd (DLG3_3, Q92796; [1]): below the threshold
pKd (NOS1, P29475; [1]): below the threshold
pKd (GORASP2, Q9H8Y8; [1]): below the threshold
pKd (APBA2_2, Q99767; [1]): below the threshold
pKd (CASK, O14936; [1]): below the threshold
pKd (NHERF3_4, Q5T2W1; [1]): 3.57
pKd (MAST2, Q6P0Q8; [1]): 5.13
pKd (LNX1_3, Q8TBB1; [1]): below the threshold
pKd (ARHGEF11, O15085; [1]): below the threshold
pKd (TJP1_3, Q07157; [1]): below the threshold
Binder: QNTDDVQTSF [ACE2, Q9BYF1]

pKd (GRIP1_3, Q9Y3R0; [2]): below the threshold
pKd (MPP2, Q14168; [2]): below the threshold
pKd (IL16_4, Q14005; [2]): below the threshold
pKd (DLG4_1, P78352; [2]): below the threshold
pKd (GIPC2, Q8TF65; [2]): below the threshold
pKd (GRIP1_2, Q9Y3R0; [2]): below the threshold
pKd (APBA2_1, Q99767; [2]): below the threshold
pKd (LNX2_3, Q8N448; [2]): below the threshold
pKd (GRID2IP_1, A4D2P6; [2]): below the threshold
pKd (MPP6, Q9NZW5; [2]): 3.59
pKd (SNTB1, Q13884; [2]): 3.51
pKd (DFNB31_1, Q9P202; [2]): below the threshold
pKd (DLG1_3, Q12959; [2]): below the threshold
pKd (GRIP1_7, Q9Y3R0; [2]): below the threshold
pKd (DLG3_3, Q92796; [2]): below the threshold
pKd (NOS1, P29475; [2]): 3.8
pKd (GORASP2, Q9H8Y8; [2]): below the threshold
pKd (APBA2_2, Q99767; [2]): below the threshold
pKd (CASK, O14936; [2]): below the threshold
pKd (NHERF3_4, Q5T2W1; [2]): 3.7
pKd (MAST2, Q6P0Q8; [2]): 4.85
pKd (LNX1_3, Q8TBB1; [2]): below the threshold
pKd (ARHGEF11, O15085; [2]): 4.01
pKd (TJP1_3, Q07157; [2]): below the threshold
Binder: GEDRSPPTAL [MKNK1, Q9BUB5]

pKd (GRIP1_3, Q9Y3R0; [2]): below the threshold
pKd (MPP2, Q14168; [2]): below the threshold
pKd (IL16_4, Q14005; [2]): below the threshold
pKd (DLG4_1, P78352; [2]): below the threshold
pKd (GIPC2, Q8TF65; [2]): 4.08
pKd (GRIP1_2, Q9Y3R0; [2]): below the threshold
pKd (APBA2_1, Q99767; [2]): below the threshold
pKd (LNX2_3, Q8N448; [2]): below the threshold
pKd (GRID2IP_1, A4D2P6; [2]): below the threshold
pKd (MPP6, Q9NZW5; [2]): 3.54
pKd (SNTB1, Q13884; [2]): below the threshold
pKd (DFNB31_1, Q9P202; [2]): below the threshold
pKd (DLG1_3, Q12959; [2]): below the threshold
pKd (GRIP1_7, Q9Y3R0; [2]): below the threshold
pKd (DLG3_3, Q92796; [2]): below the threshold
pKd (NOS1, P29475; [2]): below the threshold
pKd (GORASP2, Q9H8Y8; [2]): 3.66
pKd (APBA2_2, Q99767; [2]): below the threshold
pKd (CASK, O14936; [2]): below the threshold
pKd (NHERF3_4, Q5T2W1; [2]): below the threshold
pKd (MAST2, Q6P0Q8; [2]): 5
pKd (LNX1_3, Q8TBB1; [2]): below the threshold
pKd (ARHGEF11, O15085; [2]): below the threshold
pKd (TJP1_3, Q07157; [2]): below the threshold
Binder: LPAVCYDIDI [PTTG2, Q9NZH5]
